Where “and” joins values, the source holds several entries; their conditions need not be identical. Identical values can stand only once.
T1: recombinant Fc-tagged human LAG-3 (R&D Systems, 2319-L3-050) (human, UniProt P18627 23-450)
T1 construct: Bought protein; also called LAG-3 Fc; human LAG-3-Fc; not shown: Fc tag of the bought fusion protein
T1 sequence: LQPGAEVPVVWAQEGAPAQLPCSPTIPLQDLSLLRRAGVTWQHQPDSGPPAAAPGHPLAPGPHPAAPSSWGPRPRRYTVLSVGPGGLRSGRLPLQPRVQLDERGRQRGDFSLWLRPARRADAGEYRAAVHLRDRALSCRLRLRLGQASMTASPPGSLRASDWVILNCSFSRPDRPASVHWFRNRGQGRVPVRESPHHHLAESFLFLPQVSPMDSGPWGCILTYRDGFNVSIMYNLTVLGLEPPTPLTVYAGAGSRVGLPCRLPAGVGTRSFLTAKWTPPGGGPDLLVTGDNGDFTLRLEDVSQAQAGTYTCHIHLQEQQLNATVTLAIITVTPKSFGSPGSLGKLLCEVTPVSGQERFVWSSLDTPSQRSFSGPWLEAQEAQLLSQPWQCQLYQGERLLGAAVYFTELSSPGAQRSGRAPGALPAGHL


Tests used:
[1] = target: T2, human PD-L1 expressed on cells (human, UniProt Q9NZQ7 19-290); experiment: flow cytometry on HEK cells expressing human PD-L1
T2 construct: also called hPD-L1; human PD-L1 HEK
Description: (§1) HEK cells expressing human or cynomolgus PD-L1 grown in DMEM (Life Technologies, 61965-026) containing 10% FBS (Life Technologies, 10270-1-6), 100 μg/ml Hygromycin B (Melford Laboratories Ltd, Z2475), 15 μg/ml Blasticidin (Melford Laboratories Ltd, B1105) and 1 μg/ml Doxycyclin (Sigma, D9891) were detached from tissue culture flasks using cell dissociation buffer (Life Technologies, 13151-014) and seeded in V-bottom 96-well plates (Costar, 3897) at 2×10⁵ cells/well. The plates were centrifuged at 1500 rpm for 3 min at 4° C. to pellet the cells. A dilution series of the mAb² (or control mAb) was incubated with the cells in a 100 μl volume for 1 h at 4° C. The plates were washed and secondary antibody (Anti-human Fc-488, Jackson ImmunoResearch, 109-546-098) was diluted 1:1000 in PBS and 100 μl was added to the cells for 30 min at 4° C. (plates were kept in the dark). The plates were washed then cells were resuspended in 100 μl PBS containing 1 μg/ml DAPI (Biotium, 40043). The plates were read using Canto II flow cytometer (BD Bioscience). Dead cells were excluded and the fluorescence in the FITC channel (488 nm/530/30) was measured. The data was fit using log (agonist) vs response in GraphPad Prism Software. The plates were read on a BD FACSCanto II cytometer (BD Biosciences) and the data analysed using FlowJo.

[2] = target: T2, human PD-L1 expressed on cells; experiment: cell-based or functional assay
[3] = target: T1, recombinant Fc-tagged human LAG-3 (R&D …); experiment: SPR, BIAcore T200; mAb2 captured on Protein L, human LAG-3 Fc injected
Description: (§2) Protein L (Thermo, 21189) was immobilized on flow cells 1 and 2 of a Series S CM5 chip (GE Healthcare, BR-1005-30) by amine coupling (GE Healthcare, BR-1000-50) to a surface density of 2000 RU by following the manufacturer's instructions for the BIAcore T200 instrument. […] The association time was 3 min and the dissociation time was 6 min. Running buffer was HBS-P (GE Healthcare, BR-1003-68). Both flow cells were regenerated by injecting 10 mM sodium hydroxide (NaOH) at a flow rate of 100 μl/min for 20 seconds. The data were analysed by double referencing against the blank flow cell.
(§3) The binding kinetics were fit with a 1:1 Langmuir model to generate binding association (kₐ) and dissociation (kd) rates. Equilibrium binding constants (KD) were calculated by dividing the dissociation rate by the association rate for each sample. Data analysis was performed with BiaEvaluation software version 3.2.

[4] = target: T3, human PD-L1 Fc (R&D Systems, 156-B7) (human, UniProt Q9NZQ7 19-239); experiment: SPR, BIAcore T200; mAb2 captured on Protein L, PD-L1 Fc injected
T3 construct: Bought protein; not shown: Fc tag of the bought fusion protein
Description: as §2, §3

[5] = target: T4, cynomolgus PD-L1 expressed on cells (cynomolgus monkey, UniProt Q9NZQ7 19-290 (human entry)); experiment: flow cytometry on HEK cells expressing cynomolgus PD-L1
T4 construct: also called cPD-L1; cyno PD-L1
Description: as §1

T2 sequence (Q9NZQ7 19-290 limits assumed): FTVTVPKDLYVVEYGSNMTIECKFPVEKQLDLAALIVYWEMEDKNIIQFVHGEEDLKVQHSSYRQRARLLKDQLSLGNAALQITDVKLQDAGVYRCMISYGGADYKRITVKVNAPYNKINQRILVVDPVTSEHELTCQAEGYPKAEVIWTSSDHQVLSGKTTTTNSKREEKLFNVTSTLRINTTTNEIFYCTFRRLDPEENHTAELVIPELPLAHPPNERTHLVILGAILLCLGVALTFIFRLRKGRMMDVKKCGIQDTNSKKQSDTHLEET
T4 sequence (Q9NZQ7 other isoform, or with tags, fused parts or gaps limits assumed): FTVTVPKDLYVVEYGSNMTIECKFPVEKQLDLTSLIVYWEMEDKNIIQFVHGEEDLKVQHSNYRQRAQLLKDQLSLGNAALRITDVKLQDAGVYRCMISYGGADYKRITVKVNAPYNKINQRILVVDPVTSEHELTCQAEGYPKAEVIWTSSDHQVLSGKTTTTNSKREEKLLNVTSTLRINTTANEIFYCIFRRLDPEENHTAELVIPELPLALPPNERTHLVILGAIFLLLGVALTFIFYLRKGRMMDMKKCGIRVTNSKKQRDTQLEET
T3 sequence (Q9NZQ7 19-239 limits assumed): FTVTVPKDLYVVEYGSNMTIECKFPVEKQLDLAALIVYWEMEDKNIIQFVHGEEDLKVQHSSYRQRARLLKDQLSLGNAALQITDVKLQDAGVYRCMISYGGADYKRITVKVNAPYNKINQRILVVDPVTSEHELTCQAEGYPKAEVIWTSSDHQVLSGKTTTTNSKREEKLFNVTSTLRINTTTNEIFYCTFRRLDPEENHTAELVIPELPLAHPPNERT

| Binder | EC50 [1] | Maximal IL2 release calculated as % ctrl (84G09 + 25F7) [2] | Kd [3] | koff [3] | kon [3] | Kd [4] | koff [4] | kon [4] | EC50 [5] |
| --- | --- | --- | --- | --- | --- | --- | --- | --- | --- |
| anti-human LAG-3/PD-L1 mAb2 FS18-7-32/84G09 with LALA mutation (bispecific antibody, human IgG1, kappa, L234A L235A, also called FS18-7-32/84G09LALA; F518-7-32/84G09LALA) heavy: EVQLVESGGGLVQPGRSLRLSCAASGFTFDDYAMHWVRQTPGKGLEWVSGISWKSNIIGYADSVKGRFTISRDNAKNSLYLQMNSLRAEDTALYYCARDITGSGSYGWFDPWGQGTLVTVSSASTKGPSVFPLAPSSKSTSGGTAALGCLVKDYFPEPVTVSWNSGALTSGVHTFPAVLQSSGLYSLSSVVTVPSSSLGTQTYICNVNHKPSNTKVDKKVEPKSCDKTHTCPPCPAPEAAGGPSVFLFPPKPKDTLMISRTPEVTCVVVDVSHEDPEVKFNWYVDGVEVHNAKTKPREEQYNSTYRVVSVLTVLHQDWLNGKEYKCKVSNKALPAPIEKTISKAKGQPREPQVYTLPPSWDEPWGEDVSLTCLVKGFYPSEIAVEWESNGQPENNYKTTPPVLDSDGSFFLYSKLTVPYDRWVWPDEFSCSVMHEALHNHYTQKSLSLSPG light: DIQMTQSPSSLSASVGDRVTITCRASQSISSYLNWYQQKPGKAPKPLIYVASSLQSGVPSSFSGSGSGTDFTLTISSLQPEDFATYYCQQSYSNPITFGQGTRLEIKRTVAAPSVFIFPPSDEQLKSGTASVVCLLNNFYPREAKVQWKVDNALQSGNSQESVTEQDSKDSTYSLSSTLTLSKADYEKHKVYACEVTHQGLSSPVTKSFNRGEC | 3.82 nM | 82.9% | 0.049 nM | 0.00028 s⁻¹ | 5.6e+06 M⁻¹ s⁻¹ | 1 nM | 0.00032 s⁻¹ | 340000 M⁻¹ s⁻¹ | 1.98 nM |
| anti-human LAG-3/PD-L1 mAb2 FS18-7-95/84G09 with LALA mutation (bispecific antibody, human IgG1, kappa, L234A L235A) heavy: EVQLVESGGGLVQPGRSLRLSCAASGFTFDDYAMHWVRQTPGKGLEWVSGISWKSNIIGYADSVKGRFTISRDNAKNSLYLQMNSLRAEDTALYYCARDITGSGSYGWFDPWGQGTLVTVSSASTKGPSVFPLAPSSKSTSGGTAALGCLVKDYFPEPVTVSWNSGALTSGVHTFPAVLQSSGLYSLSSVVTVPSSSLGTQTYICNVNHKPSNTKVDKKVEPKSCDKTHTCPPCPAPEAAGGPSVFLFPPKPKDTLMISRTPEVTCVVVDVSHEDPEVKFNWYVDGVEVHNAKTKPREEQYNSTYRVVSVLTVLHQDWLNGKEYKCKVSNKALPAPIEKTISKAKGQPREPQVYTLPPSWDEPWGEDVSLTCLVKGFYPSDIAVEWESNGYQEDNYKTTPPVLDSDGSFFLYSKLTVPYDRWVWPDEFSCSVMHEALHNHYTQKSLSLSPG light: DIQMTQSPSSLSASVGDRVTITCRASQSISSYLNWYQQKPGKAPKPLIYVASSLQSGVPSSFSGSGSGTDFTLTISSLQPEDFATYYCQQSYSNPITFGQGTRLEIKRTVAAPSVFIFPPSDEQLKSGTASVVCLLNNFYPREAKVQWKVDNALQSGNSQESVTEQDSKDSTYSLSSTLTLSKADYEKHKVYACEVTHQGLSSPVTKSFNRGEC | – | 79.8% | – | – | – | – | – | – | – |
| anti-human LAG-3/PD-L1 mAb2 FS18-7-33/84G09 with LALA mutation (bispecific antibody, human IgG1, kappa, L234A L235A, also called FS18-7-33/84G09LALA; F518-7-33/84G09LALA) heavy: EVQLVESGGGLVQPGRSLRLSCAASGFTFDDYAMHWVRQTPGKGLEWVSGISWKSNIIGYADSVKGRFTISRDNAKNSLYLQMNSLRAEDTALYYCARDITGSGSYGWFDPWGQGTLVTVSSASTKGPSVFPLAPSSKSTSGGTAALGCLVKDYFPEPVTVSWNSGALTSGVHTFPAVLQSSGLYSLSSVVTVPSSSLGTQTYICNVNHKPSNTKVDKKVEPKSCDKTHTCPPCPAPEAAGGPSVFLFPPKPKDTLMISRTPEVTCVVVDVSHEDPEVKFNWYVDGVEVHNAKTKPREEQYNSTYRVVSVLTVLHQDWLNGKEYKCKVSNKALPAPIEKTISKAKGQPREPQVYTLPPSWDEPWGEDVSLTCLVKGFYPSDIAVEWESNGQPEDNYKTTPPVLDSDGSFFLYSKLTVPYDRWVWPDEFSCSVMHEALHNHYTQKSLSLSPG light: DIQMTQSPSSLSASVGDRVTITCRASQSISSYLNWYQQKPGKAPKPLIYVASSLQSGVPSSFSGSGSGTDFTLTISSLQPEDFATYYCQQSYSNPITFGQGTRLEIKRTVAAPSVFIFPPSDEQLKSGTASVVCLLNNFYPREAKVQWKVDNALQSGNSQESVTEQDSKDSTYSLSSTLTLSKADYEKHKVYACEVTHQGLSSPVTKSFNRGEC | 3.45 nM and 3.23 nM | 64% | 0.043 nM | 0.00018 s⁻¹ | 4.2e+06 M⁻¹ s⁻¹ | 1.1 nM | 0.00042 s⁻¹ | 370000 M⁻¹ s⁻¹ | 1.9 nM and 1.73 nM |
| anti-human LAG-3/PD-L1 mAb2 FS18-7-88/84G09 with LALA mutation (bispecific antibody, human IgG1, kappa, L234A L235A) heavy: EVQLVESGGGLVQPGRSLRLSCAASGFTFDDYAMHWVRQTPGKGLEWVSGISWKSNIIGYADSVKGRFTISRDNAKNSLYLQMNSLRAEDTALYYCARDITGSGSYGWFDPWGQGTLVTVSSASTKGPSVFPLAPSSKSTSGGTAALGCLVKDYFPEPVTVSWNSGALTSGVHTFPAVLQSSGLYSLSSVVTVPSSSLGTQTYICNVNHKPSNTKVDKKVEPKSCDKTHTCPPCPAPEAAGGPSVFLFPPKPKDTLMISRTPEVTCVVVDVSHEDPEVKFNWYVDGVEVHNAKTKPREEQYNSTYRVVSVLTVLHQDWLNGKEYKCKVSNKALPAPIEKTISKAKGQPREPQVYTLPPSWDEPWGEDVSLTCLVKGFYPSDIAVEWESNGVPELNVKTTPPVLDSDGSFFLYSKLTVPYDRWVWPDEFSCSVMHEALHNHYTQKSLSLSPG light: DIQMTQSPSSLSASVGDRVTITCRASQSISSYLNWYQQKPGKAPKPLIYVASSLQSGVPSSFSGSGSGTDFTLTISSLQPEDFATYYCQQSYSNPITFGQGTRLEIKRTVAAPSVFIFPPSDEQLKSGTASVVCLLNNFYPREAKVQWKVDNALQSGNSQESVTEQDSKDSTYSLSSTLTLSKADYEKHKVYACEVTHQGLSSPVTKSFNRGEC | 3.49 nM | – | – | – | – | – | – | – | 1.81 nM |
| anti-human LAG-3/PD-L1 mAb2 FS18-7-58/84G09 with LALA mutation (bispecific antibody, human IgG1, kappa, L234A L235A, also called F518-7-58/84G09LALA) heavy: EVQLVESGGGLVQPGRSLRLSCAASGFTFDDYAMHWVRQTPGKGLEWVSGISWKSNIIGYADSVKGRFTISRDNAKNSLYLQMNSLRAEDTALYYCARDITGSGSYGWFDPWGQGTLVTVSSASTKGPSVFPLAPSSKSTSGGTAALGCLVKDYFPEPVTVSWNSGALTSGVHTFPAVLQSSGLYSLSSVVTVPSSSLGTQTYICNVNHKPSNTKVDKKVEPKSCDKTHTCPPCPAPEAAGGPSVFLFPPKPKDTLMISRTPEVTCVVVDVSHEDPEVKFNWYVDGVEVHNAKTKPREEQYNSTYRVVSVLTVLHQDWLNGKEYKCKVSNKALPAPIEKTISKAKGQPREPQVYTLPPSWDEPWGEDVSLTCLVKGFYPSDIAVEWESNGYPEIEFKTTPPVLDSDGSFFLYSKLTVPYDRWVWPDEFSCSVMHEALHNHYTQKSLSLSPG light: DIQMTQSPSSLSASVGDRVTITCRASQSISSYLNWYQQKPGKAPKPLIYVASSLQSGVPSSFSGSGSGTDFTLTISSLQPEDFATYYCQQSYSNPITFGQGTRLEIKRTVAAPSVFIFPPSDEQLKSGTASVVCLLNNFYPREAKVQWKVDNALQSGNSQESVTEQDSKDSTYSLSSTLTLSKADYEKHKVYACEVTHQGLSSPVTKSFNRGEC | 3.77 nM and 3.91 nM | 79.4% | – | – | – | – | – | – | 1.86 nM and 2.03 nM |
| anti-human PD-L1 mAb 84G09 (without LALA mutation) (antibody, human IgG1, kappa, Human IgG1; also called 84G09 (parental); parental anti-PD-L1 mAb) heavy: not shown light: DIQMTQSPSSLSASVGDRVTITCRASQSISSYLNWYQQKPGKAPKPLIYVASSLQSGVPSSFSGSGSGTDFTLTISSLQPEDFATYYCQQSYSNPITFGQGTRLEIKRTVAAPSVFIFPPSDEQLKSGTASVVCLLNNFYPREAKVQWKVDNALQSGNSQESVTEQDSKDSTYSLSSTLTLSKADYEKHKVYACEVTHQGLSSPVTKSFNRGEC | 3.11 nM and 3.05 nM | – | – | – | – | – | – | – | 1.64 nM and 1.96 nM |

Reference: patent US20220185894A1 (F STAR THERAPEUTICS, published 2022)
